Measured values published in US20180177842A1 (CANIMGUIDE THERAPEUTICS, published 2018).

T1: P3028 (VFDEFKPLVEEPQNLIK, SEQ ID NO: 185), His-tagged (human)
T1 construct: Synthetic fragment of human serum albumin (positions 397-413); used in solution as His-tagged peptide PGE73; also called PGE73; not shown: His-tag
T1 peptide: VFDEFKPLVEEPQNLIK

B1: AKLDTFFVKLSLFTER (SEQ ID NO: 268) (peptide)
peptide: AKLDTFFVKLSLFTER
B2: KKLDHFFVKLSLFTER (SEQ ID NO: 420) (peptide)
peptide: KKLDHFFVKLSLFTER
B3: KKLDTFCVKLSLFTER (SEQ ID NO: 409) (peptide)
peptide: KKLDTFCVKLSLFTER
B4: KKDDTFFVKLSLFTER (SEQ ID NO: 284) (peptide)
peptide: KKDDTFFVKLSLFTER
B5: KILDTFFVKLSLFTER (SEQ ID NO: 467) (peptide)
peptide: KILDTFFVKLSLFTER
B6: KELDTFFVKLSLFTER (SEQ ID NO: 441) (peptide)
peptide: KELDTFFVKLSLFTER
B7: KKLDSFFVKLSLFTER (SEQ ID NO: 310) (peptide)
peptide: KKLDSFFVKLSLFTER
B8: FKLDTFFVKLSLFTER (SEQ ID NO: 465) (peptide)
peptide: FKLDTFFVKLSLFTER
B9: KKLDEFFVKLSLFTER (SEQ ID NO: 456) (peptide)
peptide: KKLDEFFVKLSLFTER
B10: KKLDTFFCKLSLFTER (SEQ ID NO: 519) (peptide)
peptide: KKLDTFFCKLSLFTER
B11: KKLDRFFVKLSLFTER (SEQ ID NO: 309) (peptide)
peptide: KKLDRFFVKLSLFTER
B12: KKCDTFFVKLSLFTER (SEQ ID NO: 283) (peptide)
peptide: KKCDTFFVKLSLFTER
B13: KKKDTFFVKLSLFTER (SEQ ID NO: 290) (peptide)
peptide: KKKDTFFVKLSLFTER
B14: KKFDTFFVKLSLFTER (SEQ ID NO: 286) (peptide)
peptide: KKFDTFFVKLSLFTER
B15: KKLDTFAVKLSLFTER (SEQ ID NO: 404) (peptide)
peptide: KKLDTFAVKLSLFTER
B16: KKLDTFFAKLSLFTER (SEQ ID NO: 495) (peptide)
peptide: KKLDTFFAKLSLFTER
B17: KKGDTFFVKLSLFTER (SEQ ID NO: 287) (peptide)
peptide: KKGDTFFVKLSLFTER
B18: KKADTFFVKLSLFTER (SEQ ID NO: 282) (peptide)
peptide: KKADTFFVKLSLFTER
B19: KKIDTFFVKLSLFTER (SEQ ID NO: 289) (peptide)
peptide: KKIDTFFVKLSLFTER
B20: KKLDPFFVKLSLFTER (SEQ ID NO: 307) (peptide)
peptide: KKLDPFFVKLSLFTER
B21: KKLDKFFVKLSLFTER (SEQ ID NO: 530) (peptide)
peptide: KKLDKFFVKLSLFTER
B22: EKLDTFFVKLSLFTER (SEQ ID NO: 270) (peptide)
peptide: EKLDTFFVKLSLFTER
B23: KKLCTFFVKLSLFTER (SEQ ID NO: 449) (peptide)
peptide: KKLCTFFVKLSLFTER
B24: KKLDLFFVKLSLFTER (SEQ ID NO: 484) (peptide)
peptide: KKLDLFFVKLSLFTER
B25: KKHDTFFVKLSLFTER (SEQ ID NO: 288) (peptide)
peptide: KKHDTFFVKLSLFTER
B26: IKLDTFFVKLSLFTER (SEQ ID NO: 273) (peptide)
peptide: IKLDTFFVKLSLFTER
B27: KKLDFFFVKLSLFTER (SEQ ID NO: 504) (peptide)
peptide: KKLDFFFVKLSLFTER
B28: KFLDTFFVKLSLFTER (SEQ ID NO: 421) (peptide)
peptide: KFLDTFFVKLSLFTER
B29: KKLDTFEVKLSLFTER (SEQ ID NO: 424) (peptide)
peptide: KKLDTFEVKLSLFTER
B30: KKLATFFVKLSLFTER (SEQ ID NO: 298) (peptide)
peptide: KKLATFFVKLSLFTER
B31: KALDTFFVKLSLFTER (SEQ ID NO: 485) (peptide)
peptide: KALDTFFVKLSLFTER
B32: KKLDTFFGKLSLFTER (SEQ ID NO: 327) (peptide)
peptide: KKLDTFFGKLSLFTER
B33: KHLDTFFVKLSLFTER (SEQ ID NO: 418) (peptide)
peptide: KHLDTFFVKLSLFTER
B34: KGLDTFFVKLSLFTER (SEQ ID NO: 412) (peptide)
peptide: KGLDTFFVKLSLFTER
B35: KKLDNFFVKLSLFTER (SEQ ID NO: 306) (peptide)
peptide: KKLDNFFVKLSLFTER
B36: KKLDGFFVKLSLFTER (SEQ ID NO: 95) (peptide)
peptide: KKLDGFFVKLSLFTER
B37: KKLDTFDVKLSLFTER (SEQ ID NO: 492) (peptide)
peptide: KKLDTFDVKLSLFTER
B38: KKLDTAFVKLSLFTER (SEQ ID NO: 313) (peptide)
peptide: KKLDTAFVKLSLFTER
B39: KKLDCFFVKLSLFTER (SEQ ID NO: 304) (peptide)
peptide: KKLDCFFVKLSLFTER
B40: KKLDTCFVKLSLFTER (SEQ ID NO: 462) (peptide)
peptide: KKLDTCFVKLSLFTER
B41: KCLDTFFVKLSLFTER (SEQ ID NO: 499) (peptide)
peptide: KCLDTFFVKLSLFTER
B42: GKLDTFFVKLSLFTER (SEQ ID NO: 271) (peptide)
peptide: GKLDTFFVKLSLFTER
B43: KDLDTFFVKLSLFTER (SEQ ID NO: 461) (peptide)
peptide: KDLDTFFVKLSLFTER
B44: KKLDTFFFKLSLFTER (SEQ ID NO: 326) (peptide)
peptide: KKLDTFFFKLSLFTER
B45: KKLDIFFVKLSLFTER (SEQ ID NO: 501) (peptide)
peptide: KKLDIFFVKLSLFTER
B46: KKLDMFFVKLSLFTER (SEQ ID NO: 305) (peptide)
peptide: KKLDMFFVKLSLFTER
B47: KKLDAFFVKLSLFTER (SEQ ID NO: 447) (peptide)
peptide: KKLDAFFVKLSLFTER
B48: DKLDTFFVKLSLFTER (SEQ ID NO: 269) (peptide)
peptide: DKLDTFFVKLSLFTER
B49: KKLDDFFVKLSLFTER (SEQ ID NO: 500) (peptide)
peptide: KKLDDFFVKLSLFTER
B50: KKLDQFFVKLSLFTER (SEQ ID NO: 308) (peptide)
peptide: KKLDQFFVKLSLFTER
B51: HKLDTFFVKLSLFTER (SEQ ID NO: 272) (peptide)
peptide: HKLDTFFVKLSLFTER
B52: KKEDTFFVKLSLFTER (SEQ ID NO: 285) (peptide)
peptide: KKEDTFFVKLSLFTER

Target: T1, P3028 (VFDEFKPLVEEPQNLIK, SEQ ID NO: …)
Experiment: PEPSCAN ELISA; peptide on chip, His-P3028 added;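 further: peroxidase color development with ABTS and H2O2 substrate, OD405 imaged by CCD camera with image processing and taken as raw values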
Protocol: After washing, the peroxidase substrate 2,2′-azine-di-3-ethylbenzthiazoline sulfonate (ABTS) and 2 μL of 3% H2O2 were added. The binding capacity of the mAb was measured as a color development at 405 nm (optical density, OD405). The color development was quantified with a charge-coupled device (CCD)—camera and an image processing system.
The OD405-values obtained by a CCD-camera was considered as raw data values (“rampo values,” “rampo units,” or “rampo scores”). […] First the CCD-camera made a picture of the card before peroxidase coloring and then again a picture after the peroxidase coloring. […] These values were copied into an excel file and labeled as a raw data file. […] Sometimes a well can contain an air-bubble resulting in a false-positive value. If manual inspection of the cards detect an air-bubble the value are set to 0 for well.

In order of falling “RAMPO Score” value:
1. B38  575 rampo units
2. B17  563 rampo units
3. B50  535 rampo units
4. B52  528 rampo units
5. B30  494 rampo units
6. B4  492 rampo units
7. B26  483 rampo units
8. B25  477 rampo units
9. B46  475 rampo units
10. B1  466 rampo units
11. B7  458 rampo units
12. B19  454 rampo units
13. B39  449 rampo units
14. B35  436 rampo units
15. B12  432 rampo units
16. B11  430 rampo units
17. B51  428 rampo units
18. B18  427 rampo units
19. B20  427 rampo units
20. B15  426 rampo units
21. B3  411 rampo units
22. B34  405 rampo units
23. B22  396 rampo units
24. B33  394 rampo units
25. B14  393 rampo units
26. B2  391 rampo units
27. B28  390 rampo units
28. B13  386 rampo units
29. B36  386 rampo units
30. B29  381 rampo units
31. B32  379 rampo units
32. B48  373 rampo units
33. B42  367 rampo units
34. B44  358 rampo units
35. B6  349 rampo units
36. B47  346 rampo units
37. B23  344 rampo units
38. B9  341 rampo units
39. B40  335 rampo units
40. B43  335 rampo units
41. B8  332 rampo units
42. B5  331 rampo units
43. B24  311 rampo units
44. B31  309 rampo units
45. B37  301 rampo units
46. B16  299 rampo units
47. B41  295 rampo units
48. B49  295 rampo units
49. B45  293 rampo units
50. B27  290 rampo units
51. B10  254 rampo units
52. B21  237 rampo units
